Percent inhibition by heparin (10 μM) data for one substance are collected here from article PMC4725753.

This experiment deals with the microbial proteins (competition ELISA with heparin, data not shown). Nature of the experiment: ELISA; data not shown; immobilised microbial proteins incubated with vitronectin (5 μg/ml) that was pre-incubated with heparin (10 μM). In general terms: An ELISA detects its analyte on a solid surface through an enzyme-linked reagent.

Regarding “vitronectin purified from human plasma (natural protein)”, the percent inhibition by heparin (10 μM) lay within 68 to 89%.
